# According to IntAct's records for PubMed 22035699:
# B1: 5-hydroxytryptamine receptor 1A (Homo sapiens), P08908 (parent)
# chain: MDVLSPGQGNNTTSPPAPFETGGNTTGISDVTVSYQVITSLLLGTLIFCAVLGNACVVAAIALERSLQNVANYLIGSLAVTDLMVSVLVLPMAALYQVLNKWTLGQVTCDLFIALDVLCCTSSILHLCAIALDRYWAITDPIDYVNKRTPRRAAALISLTWLIGFLISIPPMLGWRTPEDRSDPDACTISKDHGYTIYSTFGAFYIPLLLMLVLYGRIFRAARFRIRKTVKKVEKTGADTRHGASPAPQPKKSVNGESGSRNWRLGVESKAGGALCANGAVRQGDDGAALEVIEVHRVGNSKEHLPLPSEAGPTPCAPASFERKNERNAEAKRKMALARERKTVKTLGIIMGTFILCWLPFFIVALVLPFCESSCHMPTLLGAIINWLGYSNSLLNPVIYAYFNKDFQNAFKKIIKCKFCRQ
# Variants of: B1
# Conditions: with fgfr1_human FGFR1, P11362
# Sequence of fgfr1_human FGFR1, P11362 (P11362 whole entry, looked up): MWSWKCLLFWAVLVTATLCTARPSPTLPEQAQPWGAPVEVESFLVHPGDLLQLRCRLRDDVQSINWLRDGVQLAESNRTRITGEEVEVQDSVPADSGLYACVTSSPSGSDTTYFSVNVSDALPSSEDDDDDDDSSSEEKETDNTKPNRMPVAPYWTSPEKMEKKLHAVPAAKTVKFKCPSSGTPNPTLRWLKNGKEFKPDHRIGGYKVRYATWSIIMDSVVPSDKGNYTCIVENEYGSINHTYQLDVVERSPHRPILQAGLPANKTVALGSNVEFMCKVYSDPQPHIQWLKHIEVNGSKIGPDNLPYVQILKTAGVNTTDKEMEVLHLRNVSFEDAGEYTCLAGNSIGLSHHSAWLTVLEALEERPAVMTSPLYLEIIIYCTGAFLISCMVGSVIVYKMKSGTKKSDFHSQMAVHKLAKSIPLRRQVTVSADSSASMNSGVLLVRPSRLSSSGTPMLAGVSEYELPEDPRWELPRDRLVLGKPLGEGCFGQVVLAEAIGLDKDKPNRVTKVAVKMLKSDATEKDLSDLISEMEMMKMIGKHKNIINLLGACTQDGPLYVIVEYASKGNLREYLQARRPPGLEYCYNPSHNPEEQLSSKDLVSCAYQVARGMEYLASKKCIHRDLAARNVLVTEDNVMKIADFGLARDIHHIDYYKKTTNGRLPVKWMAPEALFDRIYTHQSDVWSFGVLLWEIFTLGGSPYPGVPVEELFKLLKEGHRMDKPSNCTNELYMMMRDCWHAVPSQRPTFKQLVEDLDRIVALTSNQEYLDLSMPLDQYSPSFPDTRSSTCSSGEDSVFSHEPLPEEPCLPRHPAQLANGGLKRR
row,effect of a mutation on the interaction,Variant
1,decreasing interaction,D406A;F407A;Q408A;N409A;F411A;K412A;K413A;I414A;I415A;K416A
